{
  "source": "patent US20240116985A1",
  "about": "“STAPLED PEPTIDES AND METHODS THEREOF” (priority 2020, published 2024)",
  "binders": {"B1": {"name": "I-797 (peptide)", "peptide": "Ac-[αAllylPro]F[tBuAla][B5]DDAADN[PyrS2][3Thi][Bta]Q-NH2", "modifications": "staple 1-4, 4-11"}},
  "key": {"[1]": {"molecular_target": "beta-catenin-Halo NanoBRET construct (Homo sapiens (Human)) (UniProt P35222)", "sequence (P35222 whole entry)": "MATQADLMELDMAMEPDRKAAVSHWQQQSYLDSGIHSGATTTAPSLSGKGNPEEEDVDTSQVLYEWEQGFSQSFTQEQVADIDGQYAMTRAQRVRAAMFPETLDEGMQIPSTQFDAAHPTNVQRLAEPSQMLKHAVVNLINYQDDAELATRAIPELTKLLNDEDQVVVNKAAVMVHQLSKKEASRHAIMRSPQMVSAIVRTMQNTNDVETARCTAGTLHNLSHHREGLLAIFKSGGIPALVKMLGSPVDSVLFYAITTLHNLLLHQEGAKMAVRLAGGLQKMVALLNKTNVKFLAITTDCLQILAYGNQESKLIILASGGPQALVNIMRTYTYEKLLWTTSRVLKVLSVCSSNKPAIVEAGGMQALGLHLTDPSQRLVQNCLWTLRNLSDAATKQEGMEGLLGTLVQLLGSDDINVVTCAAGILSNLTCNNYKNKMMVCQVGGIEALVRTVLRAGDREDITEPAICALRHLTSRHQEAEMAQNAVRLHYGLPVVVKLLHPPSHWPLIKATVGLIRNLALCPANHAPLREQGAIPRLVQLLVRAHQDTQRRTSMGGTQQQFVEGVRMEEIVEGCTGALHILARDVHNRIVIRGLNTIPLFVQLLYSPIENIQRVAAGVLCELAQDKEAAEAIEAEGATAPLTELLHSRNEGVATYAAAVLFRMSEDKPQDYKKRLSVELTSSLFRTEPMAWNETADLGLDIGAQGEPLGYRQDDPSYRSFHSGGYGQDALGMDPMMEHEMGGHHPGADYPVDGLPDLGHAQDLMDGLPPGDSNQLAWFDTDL", "assay": "NanoBRET, Bcat-Halo/TCF4-Luc in HEK293 cells; peptide 10 uM; replicate 1; competitor TCF4-Luc"}, "[2]": {"molecular_target": "beta-catenin-Halo NanoBRET construct (Homo sapiens (Human)) (UniProt P35222)", "assay": "NanoBRET, Bcat-Halo/TCF4-Luc in HEK293 cells; peptide 20 uM; replicate 3; competitor TCF4-Luc"}, "[3]": {"molecular_target": "beta-catenin-Halo NanoBRET construct (Homo sapiens (Human)) (UniProt P35222)", "assay": "NanoBRET raw acceptor reading, Bcat-Halo/TCF4-Luc in HEK293 cells; plate row E (2.5 uM by plate map); competitor TCF4-Luc"}, "[4]": {"molecular_target": "beta-catenin-Halo (NanoBRET construct expressed in HEK293 cells) (Homo sapiens (Human)) (UniProt P35222)", "sequence (P35222 whole entry)": "as above", "assay": "NanoBRET, HEK293 cells with Bcat-Halo and TCF4-Luc; plate row E (2.5 uM by plate map), plate column 5"}, "[5]": {"molecular_target": "beta-catenin-Halo (NanoBRET construct expressed in HEK293 cells) (Homo sapiens (Human)) (UniProt P35222)", "assay": "NanoBRET, HEK293 cells with Bcat-Halo and TCF4-Luc; plate row B (20 uM by plate map), plate column 6"}, "[6]": {"molecular_target": "beta-catenin-Halo (NanoBRET construct expressed in HEK293 cells) (Homo sapiens (Human)) (UniProt P35222)", "assay": "NanoBRET, HEK293 cells with Bcat-Halo and TCF4-Luc; plate row D (5 uM by plate map), plate column 6"}, "[7]": {"molecular_target": "B-cat-Halo (beta-catenin HaloTag NanoBRET construct expressed in HEK293 cells) (UniProt P35222)", "sequence (P35222 whole entry)": "as above", "assay": "NanoBRET in HEK293 cells, Bcat-Halo + TCF4-Luc, peptide at 10 uM"}, "[8]": {"molecular_target": "beta-catenin-Halo (NanoBRET construct expressed in HEK293 cells) (Homo sapiens (Human)) (UniProt P35222)", "assay": "NanoBRET, HEK293 cells with Bcat-Halo and TCF4-Luc; plate row D (5 uM by plate map), plate column 7"}, "[9]": {"molecular_target": "beta-catenin-Halo (NanoBRET construct expressed in HEK293 cells) (Homo sapiens (Human)) (UniProt P35222)", "assay": "NanoBRET, HEK293 cells with Bcat-Halo and TCF4-Luc; plate row F (1.25 uM by plate map), plate column 7"}, "[10]": {"molecular_target": "beta-catenin-Halo NanoBRET construct (Homo sapiens (Human)) (UniProt P35222)", "assay": "NanoBRET, Bcat-Halo/TCF4-Luc in HEK293 cells; peptide 0.625 uM; replicate 1; competitor TCF4-Luc"}, "[11]": {"molecular_target": "beta-catenin-Halo NanoBRET construct (Homo sapiens (Human)) (UniProt P35222)", "assay": "NanoBRET, Bcat-Halo/TCF4-Luc in HEK293 cells; peptide 1.25 uM; replicate 2; competitor TCF4-Luc"}, "[12]": {"molecular_target": "beta-catenin-Halo NanoBRET construct (Homo sapiens (Human)) (UniProt P35222)", "assay": "NanoBRET, Bcat-Halo/TCF4-Luc in HEK293 cells; peptide 2.5 uM; replicate 1; competitor TCF4-Luc"}, "[13]": {"molecular_target": "beta-catenin-Halo (NanoBRET construct expressed in HEK293 cells) (Homo sapiens (Human)) (UniProt P35222)", "assay": "NanoBRET, HEK293 cells with Bcat-Halo and TCF4-Luc; plate row G (0.625 uM by plate map), plate column 5"}, "[14]": {"molecular_target": "beta-catenin-Halo (NanoBRET construct expressed in HEK293 cells) (Homo sapiens (Human)) (UniProt P35222)", "assay": "NanoBRET, HEK293 cells with Bcat-Halo and TCF4-Luc; plate row B (20 uM by plate map), plate column 7"}, "[15]": {"molecular_target": "beta-catenin-Halo NanoBRET construct (Homo sapiens (Human)) (UniProt P35222)", "assay": "NanoBRET, Bcat-Halo/TCF4-Luc in HEK293 cells; peptide 5 uM; replicate 1; competitor TCF4-Luc"}, "[16]": {"molecular_target": "beta-catenin-Halo (NanoBRET construct expressed in HEK293 cells) (Homo sapiens (Human)) (UniProt P35222)", "assay": "NanoBRET, HEK293 cells with Bcat-Halo and TCF4-Luc; plate row D (5 uM by plate map), plate column 5"}, "[17]": {"molecular_target": "beta-catenin-Halo NanoBRET construct (Homo sapiens (Human)) (UniProt P35222)", "assay": "NanoBRET raw acceptor reading, Bcat-Halo/TCF4-Luc in HEK293 cells; plate row F (1.25 uM by plate map); competitor TCF4-Luc"}, "[18]": {"molecular_target": "beta-catenin-Halo NanoBRET construct (Homo sapiens (Human)) (UniProt P35222)", "assay": "NanoBRET, Bcat-Halo/TCF4-Luc in HEK293 cells; peptide 5 uM; replicate 2; competitor TCF4-Luc"}, "[19]": {"molecular_target": "beta-catenin-Halo (NanoBRET construct expressed in HEK293 cells) (Homo sapiens (Human)) (UniProt P35222)", "assay": "NanoBRET, HEK293 cells with Bcat-Halo and TCF4-Luc; plate row E (2.5 uM by plate map), plate column 6"}},
  "note": "Values joined by “and” are separate entries in the source; they are usually repeats but may differ in a detail not shown here. Equal entries are not always repeated. Starred links: 1 amine or outer side, 2 acyl side, 3 side chain; linkers in the order of their positions; H or OH if unused. Positions of bridges follow the written chain, without caps; N, C: chain ends. Non-standard residues stand in square brackets, D forms with d. PyrS2 = (S)-3-amino-1-((pent-4-en-1-yloxy)carbonyl)pyrrolidine-3-carboxylic acid, C=CCCCOC(=O)N1CC[C@@](N[*:1])(C(=O)[*:2])C1; B5 = 2-amino-2-(pent-4-en-1-yl)hept-6-enoic acid, C=CCCCC(CCCC=C)(N[*:1])C(=O)[*:2]; Bta = N[C@@H](Cc1csc2ccccc12)C(=O)O; αAllylPro = C=CC[C@@]1(C(=O)O)CCCN1; tBuAla = CC(C)(C)C[C@H](N)C(=O)O; 3Thi = N[C@@H](Cc1ccsc1)C(=O)O",
  "data": [
    {"binder": "B1", "values": [
      {"measurement": "% Inhibition", "setting": "[1]", "result": -21.7, "unit": "%"},
      {"measurement": "% Inhibition", "setting": "[2]", "result": -19.5, "unit": "%"},
      {"measurement": "Acceptor 600 LP emission", "setting": "[3]", "result": "460 and 220 and 510"},
      {"measurement": "NanoBRET donor emission 450 BP (raw reading)", "setting": "[4]", "result": 34100},
      {"measurement": "NanoBRET donor emission 450 BP (raw reading)", "setting": "[5]", "result": 55900},
      {"measurement": "NanoBRET donor emission 450 BP (raw reading)", "setting": "[6]", "result": 29900},
      {"measurement": "NanoBRET % inh @ 10 uM", "setting": "[7]", "result": 4.3, "unit": "%"},
      {"measurement": "NanoBRET donor emission 450 BP (raw reading)", "setting": "[8]", "result": 47500},
      {"measurement": "NanoBRET donor emission 450 BP (raw reading)", "setting": "[9]", "result": 71100},
      {"measurement": "% Inhibition", "setting": "[10]", "result": -56.5, "unit": "%"},
      {"measurement": "% Inhibition", "setting": "[11]", "result": -1.1, "unit": "%"},
      {"measurement": "% Inhibition", "setting": "[12]", "result": -21.3, "unit": "%"},
      {"measurement": "NanoBRET donor emission 450 BP (raw reading)", "setting": "[13]", "result": 25200},
      {"measurement": "NanoBRET donor emission 450 BP (raw reading)", "setting": "[14]", "result": 48000},
      {"measurement": "% Inhibition", "setting": "[15]", "result": -16.9, "unit": "%"},
      {"measurement": "NanoBRET donor emission 450 BP (raw reading)", "setting": "[16]", "result": 38800},
      {"measurement": "Acceptor 600 LP emission", "setting": "[17]", "result": "300 and 410 and 860"},
      {"measurement": "% Inhibition", "setting": "[18]", "result": -28.4, "unit": "%"},
      {"measurement": "NanoBRET donor emission 450 BP (raw reading)", "setting": "[19]", "result": 22700}
    ]}
  ]
}
